In PMC4834876:

Target: Taxol-stabilised microtubules of porcine brain tubulin (porcine) (UniProt P02550)
Test: co-sedimentation

EB1 full-length (end-binding protein 1), wild type, sequence (Q15691 whole entry): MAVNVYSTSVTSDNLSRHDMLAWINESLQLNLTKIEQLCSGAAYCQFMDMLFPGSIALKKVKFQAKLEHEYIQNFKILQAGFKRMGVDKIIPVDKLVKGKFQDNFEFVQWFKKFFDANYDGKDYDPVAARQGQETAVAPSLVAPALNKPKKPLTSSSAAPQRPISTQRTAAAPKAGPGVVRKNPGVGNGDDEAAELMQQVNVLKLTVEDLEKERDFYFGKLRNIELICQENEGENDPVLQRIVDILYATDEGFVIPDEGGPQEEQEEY

“EB1 full-length (end-binding protein 1), wild type (from UniProt Q15691 1-268) (natural protein)” gave a percent bound of 50%.
